Measurements reported in PMC10159003.
Where “and” joins values, the source holds several entries; their conditions need not be identical. Identical values can stand only once. Like-named read-outs stand apart in the source and are kept apart here.

Columns and labels:
[1] = molecular target: full-length RtcR (S. Typhimurium); test: SEC
[2] = molecular target: full-length RtcR (S. Typhimurium); test: SEC; remark: listed apart in the source

full-length RtcR (natural protein)
stoichiometry N [1]: 2 and 6
stoichiometry N [2]: 2 and 6
